According to PMC7271195, “CX3CL1 homo-oligomerization drives cell-to-cell adherence” (Scientific Reports, 2020):
“And” between values parts separate entries of the source, which are not always exact repeats. Equal entries are not always repeated. Ends that are not written are not given here.

Columns and labels:
[1] = biological target: TM24 peptide expressed as a EYFP fusion in COS cells; test: FRAP; TM24 as EYFP fusion in live COS-7 cells, 37 °C; diffusion rate compared with membrane proteins of known number of TM domains
[2] = biological target: the molecule itself; test: SDS-PAGE without cross-linker; 0.4 mg/ml peptide in DPC micelles, no BS3; SDS-PAGE, silver stain
[3] = biological target: the molecule itself; test: FRAP; FITC peptides in giant unilamellar vesicles of EggPC, 1000 lipids per peptide, PBS; lateral diffusion rate
[4] = biological target: the molecule itself; test: native gel or EMSA; L_(CX3CL1) cell lysate (40 µg total protein) solubilised in 1% DDM, NativePAGE Novex Bis Tris 3-12% gel, Western blot with anti-CX3CL1
[5] = biological target: the molecule itself; test: single-molecule photobleaching TIRF; L_(CX3CL1) membrane preparation diluted in excess DOPC, spread on a coverslip; stepwise bleaching of EYFP, 126 particles
[6] = biological target: the molecule itself; test: native gel or EMSA; plasma membranes of L_(CX3CL1) solubilised with CALX173ACE, CX3CL1 immuno-purified on anti-CX3CL1 beads, eluted by pH shock; clear native PAGE 4-15%, 4 °C, Western blot

TM24 peptide expressed as a EYFP fusion in COS cells (domain or fragment)
stoichiometry N [1]: 7

B1: TM24 peptide (transmembrane domain of CX3CL1 with two lysines at each end) (peptide)
peptide: KKVGLLAFLGLLFCLGVAMFTYKK
notes: two lysines added to ensure solubility; the 20 residues of the TM domain of CX3CL1; also called TM-CX3CL1 peptide; CX3CL1 transmembrane peptide; source: synthetic peptide
stoichiometry N [2]: 2

B2: TM24-FITC (peptide)
peptide: KKVGLLAFLGLLFCLGVAMFTYKK
modifications: also: FITC, position not given here
notes: two lysines added to ensure solubility; the 20 residues of the TM domain of CX3CL1; also called TM24 conjugated with fluorescein; source: synthetic peptide
binding result [3]: binds

B3: CX3CL1-EYFP fusion protein (L929 cells stably expressing CX3CL1-YFP) (natural protein, UniProt P78423 25-397, looked up)
chain: QHHGVTKCNITCSKMTSKIPVALLIHYQQNQASCGKRAIILETRQHRLFCADPKEQWVKDAMQHLDRQAAALTRNGGTFEKQIGEVKPRTTPAAGGMDESVVLEPEATGESSSLEPTPSSQEAQRALGTSPELPTGVTGSSGTRLPPTPKAQDGGPVGTELFRVPPVSTAATWQSSAPHQPGPSLWAEAKTSEAPSTQDPSTQASTASSPAPEENAPSEGQRVWGQGQSPRPENSLEREEMGPVPAHTDAFQDWGPGSMAHVSVVPVSSEGTPSREPVASGSWTPKAEEPIHATMDPQRLGVLITPVPDAQAATRRQAVGLLAFLGLLFCLGVAMFTYQSLQGCPRKMAGEMAEGLRYIPRSCGSNSYVLVPV
stoichiometry N [4]: ~3 | stoichiometry N [5]: 4.3 and 3 to 7 (2×) | stoichiometry N [6]: 5
